What all share (assay): cell-based or functional assay
Test [1] concerns the target HIV-1 envelope (Env) of virus REJO4541.67 (HIV-1).
Test [2] concerns the target HIV-1 envelope (Env) of virus CNE20 (HIV-1).
For test [3], the target named is HIV-1 envelope (Env) of virus AC10.0.29 (HIV-1).
For test [4], the target named is HIV-1 envelope (Env) of virus CAP45.2.00.G3 (HIV-1).
The target of test [5] is HIV-1 envelope (Env) of virus DU172.17 (HIV-1).
Test [6] has as its target HIV-1 envelope (Env) of virus WITO4160.33 (HIV-1).

Bounds are passed on as bounds.

Take 3BNC117 (antibody): the IC50 of viral neutralization (Env.IMC.LucR virus, TZM-BL reporter cells) in test [1] is 0.07 µg/mL; in test [2] it was > 50 µg/mL; in test [3], 11 µg/mL; in test [4], 2.7 µg/mL; in test [5], 1.25 µg/mL; in test [6] it was 0.053 µg/mL.

Source of the values: patent US20210040185A1.
